# The supplement of paper PMC10567573
# ± gives the standard deviation.
# Assay: protein stability index of a GFP-peptide fusion (GPS, HEK-293T) (PSI 1-6); higher = more stable
# Settings: c terminus: a fixed tail appended
# 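Note: 24-mer peptide tiles fused after GFP, lentivirally expressed, FACS-sorted into six equal bins by GFP/DsRed ratio, decoded by Illumina sequencing, PSI is the read-weighted mean bin number.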
Sequence,protein stability index (treatment: DMSO),"protein stability index (treatment: MLN4924 1 uM, 8 h)"
TATREEASTSLPTKPTQGASSASE [CLPTM1],5.47 ± 0.34,5.4 ± 0.46
TDEEEGLIWVVGPVLAVVFIICIV [PTPRD],2.1 ± 0.4,2.07 ± 0.46
TDEFRELRATVERMGLMKANHVFF [FADS1],2.48 ± 0.56,2.12 ± 0.21
TDLDAVRTPEPLEEFPKREDQEGS [MYBL2],5.43 ± 0.11,5.52 ± 0.21
TEGAFGLYRGLAPNFMKVIPAVSI [SLC25A25],1.88 ± 0.51,2.39 ± 0.66
TEHMKTHTGLKPYECGVCAKKFMW [ZBTB22],2.65 ± 0.26,2.77 ± 0.34
TEIANCSLKVKFFDLERENACATK [PLD5],–,3.92 ± 0.4
TELVLSDCMLSEEGATLLLRGLCA [LRRC45],2.32 ± 0.3,2.32 ± 0.24
TFEQAIQAASRIIRNEQFAIRRFQ [CDC25B],2.38 ± 0.48,2.01 ± 0.32
TFLVFSKAELGALPHDFIDSLEKT [NLN],2.13 ± 0.26,2.5 ± 0.25
TFQSHEPEFDYLKSLEIEEKINKI [PPP2R2C],4.74 ± 0.17,4.81 ± 0.31
THRDRPSQQQPLRNQVVSSTNGEL [CSNK1G1],4.93 ± 0.33,4.71 ± 0.36
THTQIDQQPPRLLIVHIALPSWAD [M1AP],2.75 ± 0.59,2.68 ± 0.54
TIEDEDVKARKQEIIKVTEQLIEA [CAMK2D],5.25 ± 0.075,5.26 ± 0.11
TIKSHLKSFSMANGMNAVMMHGRS [RAB40C],2.54 ± 0.14,2.6 ± 0.23
TKFQELQLAAGRHGDDLKNTKNEI [KRT71],4.12 ± 0.39,4.28 ± 0.13
TKVGSFMIRESETKKGFYSLSVRH [SLA],2.68 ± 0.37,2.66 ± 0.69
TLICRKLGGVKKSATLRSFEGLMG [TPD52L3],2.06 ± 0.16,2.34 ± 0.33
TLPKSLSLPTTAPSNSSSLTLSGI [MYBL2],3.87 ± 0.12,3.83 ± 0.28
TLSKSEYMVIEEGGMNHSAFPQTP [KCNA3],3.43 ± 0.15,3.53 ± 0.28
TMIRKLEGHHHDVVACDFSPDGAL [WSB1],3.25 ± 0.28,3.48 ± 0.37
TPESTKPGPVCQPPVSQSRSLFSS [ANKRD40],4.46 ± 0.19,4.21 ± 0.21

Sequence,protein stability index (treatment: DMSO),"protein stability index (treatment: MLN4924 1 uM, 8 h)"
TPLHIAAQNNCPAIMNALIEAGAH [FEM1A],3.07 ± 0.2,3.13 ± 0.23
TQSDLYKKTQETLSQAGQKTSAAL [TPD52L2],4.88 ± 0.067,4.93 ± 0.21
TQTTNDGVCQSMCHDKYTKIFNDF [ZMYND11],3.05 ± 0.2,3.27 ± 0.12
TRAADLLVNPLDPRNADKIRVKIA [SRPK2],3.64 ± 0.48,3.75 ± 0.23
TREGFTLLHLAVNSNTPVDDFHTN [FEM1B],2.85 ± 0.17,2.95 ± 0.19
TRNGEVVTESQKEQRSELDKSSAH [PRPH],5.06 ± 0.27,5.31 ± 0.4
TSFNHMDSDKLSGLWSRISHLVLP [TOR1AIP2],2.28 ± 0.2,2.33 ± 0.2
TSLFLGNGVLLCFYSQEWYARQHC [SOAT1],2.9 ± 0.8,2.91 ± 0.32
TSPSSNNSSEELSSALHLSKGMSI [NECAB1],4.26 ± 0.19,4.24 ± 0.16
TSSLRLNWEAPPGAFDSFLLRFGV [TNXB],2.06 ± 0.27,2.21 ± 0.56
TSVLDALSTDMVHAASDPSSSSGR [SMOC2],4.99 ± 0.19,4.96 ± 0.18
TVEEAKAEKETELSLQKEQLQLKI [TRIM29],5.1 ± 0.27,5.33 ± 0.3
TYHVGKQCFFNGVFLGNKRSLSER [SPATS1],2.36 ± 0.21,2.59 ± 0.22
VAAETGHTSTARLLLHRGAGKEAM [RIPK4],3.6 ± 0.28,3.46 ± 0.13
VDALKSDKKVRTIIIRSEVPGIFC [AUH],2.01 ± 0.38,2.35 ± 0.73
VELLKNLTKYPTDRDSIWKCLKFL [INTS4],2.63 ± 0.28,2.08 ± 0.22
VEPVCSGLQAQILHCYRDRPHEVL [CHCHD6],2.93 ± 0.21,2.94 ± 0.5
VFRVSSDKLALCHLELTRKLQDLI [FCHO1],2.28 ± 0.46,2.03 ± 0.61
VFSFGKHYWELDVDNSCDWALGVC [TRIM43],2.54 ± 0.085,2.54 ± 0.39
VGIFNTVINPMLNPIIYSFRNPDV [OR3A1],2.34 ± 0.48,3.03 ± 0.83
VGVDRAFPLKPMVHRKSCSTGEAG [ZC2HC1C],3.74 ± 0.18,4.2 ± 0.16
VHSDLSSIVILDNSPGAYRSHPDN [CTDNEP1],3.6 ± 0.15,3.72 ± 0.27
